Results on 140 substances are retold here after the supplement of paper PMC12042874.

± gives the uncertainty stated by the source.

The data set is described as follows: amyloid nucleation score (Sup35N fusion, yeast selection) (log enrichment); library NNK2; higher = more nucleation; inactive = no reads after selection. An outline of the steps: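 DiMSum was used to calculate nucleation scores as log enrichment of output over input reads, centred on the mode score of non-aggregating sequences. Sequences with fewer than 100 input reads were not scored. Input and output came from Illumina sequencing of plasmid inserts in psi-negative yeast expressing peptides of 20 random codons fused to Sup35N, induced 24 hours with 100 μM copper sulfate and then grown 7 days at 30°C on medium lacking adenine and uracil.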
For WNTLKVAGSVGGTAVDQVAV, the amyloid nucleation score was determined as 1.33 ± 0.34.
The same measure for WKGSEELRSGMAYVDGTGGE: 1.32 ± 0.39; for FEGNGCSILWLSFCRWAQ: 0.98 ± 0.4.
The same measure for SIRSLMGVRSKNSYCRLTVR: 0.011 ± 0.79; for MSIRIGEWPVHSGAYEESLK: 0.223 ± 0.45; for VVDCKGVLLAFSNRIFGWTT: -0.064 ± 0.76.
In turn, TQWSFGGYQRVGGLVVHAKR displayed an amyloid nucleation score of 3.03 ± 0.17.
For the substance SVYRGASKVSRCRNVKTGR, the amyloid nucleation score is 0.132 ± 0.32.
As to AHFQYRGNRAFQVWNYCGKY, the amyloid nucleation score was found to be 2.55 ± 0.12.
The same measure for TATETFAF: -0.28 ± 0.28.
Consider RLIIPIQSCLWGGWYRTGET, for which the amyloid nucleation score was 8.106 ± 0.054.
The same measure for IKISNLTTKVMSHFVSGVAK: -0.982 ± 0.48.
The same measure for YSISNPYACFSNVQSFLLYN: 2.65 ± 0.15.
The same measure for QNGAALRLIGIWGNGGCK: -0.003 ± 1.1.
For SFSRSGFCHMCSLSALTGLR, the amyloid nucleation score is -0.196 ± 1.1.
In the case of DFTVSHI, the amyloid nucleation score entry was “inactive”.
The same measure for ALLALTVLIYNLIDMLQVNR: 0.728 ± 0.8; for CKTHPKKNSGFWRKLKGCLG: 3.17 ± 0.15; for KRDPLFRVLGT: 0.071 ± 0.79.
Take WNWRVNDGVPGMTYVKAYSS: the amyloid nucleation score is -0.672 ± 0.42.
The same measure for PGTKLLSSVNAQRDSLKKGG: -0.478 ± 0.4; for SLWVYLVKMVEIFSLKD: -0.531 ± 0.55.
The same measure for CTRMRPPYLEHQSCDRLSSR: 0.241 ± 0.54; for LSSPLNLQHVFPLTWMYLC: -0.742 ± 1.1; for SLMIHGHLFRIRVRSLRGRI: -0.714 ± 0.76.
The same measure for HNEPG: -1.2 ± 0.75; for IVNSNWGARRNKRAACQRES: -0.317 ± 0.79.
In turn, RKWQED came in with an amyloid nucleation score of 0.488 ± 0.47.
The same measure for RKEVCTVRNLHSRFRGGAIR: -0.119 ± 0.55; for APFDMVGVTVLDSPVMYTNA: 0.512 ± 0.43; for ANTFIPFFGISSVRSGRNAA: 2.65 ± 0.11.
In the case of LWLADDSATRV, the amyloid nucleation score came to 0.814 ± 0.19.
For VRNGFKMRRRMSSPVCETLL, the amyloid nucleation score is -0.642 ± 1.1.
Substance MGENVLGRQGVLPKGEI showed an amyloid nucleation score of 0.192 ± 0.45.
The same measure for RWHLFSITYLKVLDWDCCLW: 5.45 ± 0.034.
With TTVERWVVFRKVQMRYRIRL, the amyloid nucleation score stood at 5.396 ± 0.049.
The same measure for SIKVRMGEARVMNLVNTLGV: “inactive”; for NWLQGVYCCGKVIGSLTSTD: 8.775 ± 0.043; for NLGCWLVGWLNCGFRWDDDR: 5.639 ± 0.038.
The same measure for LCSYANKDFKVHRSHDFVRV: 0.369 ± 0.43; for VVYTRIEVILSGDLSPREMV: 0.763 ± 0.24.
The same measure for GLSWPTNRCRRALMESTSAP: “inactive”; for GIYYTT: -0.854 ± 0.28.
With LGGGHKMDLFCYMISIWYYM, the amyloid nucleation score was found to be 2.77 ± 0.18.
For the substance LGYIRCLHSVSYLLFMYMLF, the amyloid nucleation score entry was “inactive”.
The same measure for GSSVIFSALRMYVSLFLYLV: “inactive”; for HFKSSKECSKWVGICREEGR: 0.338 ± 0.46.
The substance YVFLEGFNRVFDHVACIGLK registered an amyloid nucleation score of -0.721 ± 0.35.
On to YYMKVVMVDTQTQV, for which the amyloid nucleation score entry is “inactive”.
In turn, CCTTIEGDTLCGCFWD gave an amyloid nucleation score of 10.08 ± 0.038.
The same measure for NWDSINFYRAVSYCDHIFYV: “inactive”; for CFRKFRMEEPLGIRFSHLDT: -0.345 ± 0.21.
The same measure for WIDLNRRRREAL: -0.125 ± 0.34; for MVYRSDAGCSPVVTKK: 0.259 ± 0.5; for ILLMNVNGILSIRVQRRKRV: -0.623 ± 0.79.
The same measure for NNVSLPYMSSIVIIGLIRR: 7.193 ± 0.057.
Regarding AVDSHVIYSV, the amyloid nucleation score is -0.96 ± 0.45.
The same measure for CLLIGLAMGMVCSLPLGRIL: 0.123 ± 1; for LYKSGA: -0.574 ± 0.28.
The same measure for NTWTCAQPRVTLLAQLYELN: 3.1 ± 0.12.
Substance QYTRDFVRGTSQF registered an amyloid nucleation score of -0.949 ± 1.1.
As for RLEEDGSD, the amyloid nucleation score was determined as 7.125 ± 0.067.
As for YFRDRSFKKIILLPNWFMNT, the amyloid nucleation score result was “inactive”.
The same measure for QGCLRQVQMRDRATRIGEVI: 0.47 ± 0.25.
The same measure for YNQFNFFTG: 6.913 ± 0.045; for KSFGVDYFFCVKLTSCGIQC: 3.25 ± 0.12; for NNGMFGNFSKSDYFDKWRYM: “inactive”.
Turning to RARFWINGFRVL, the amyloid nucleation score result is “inactive”.
The same measure for CSYFMGLIVILRVKCRYMLK: -1.18 ± 0.32.
The same measure for SRKTIVGFYGVPGVRYACIW: “inactive”; for MLSTSDPVGFGRFCQNDWLN: 0.256 ± 0.55; for IAVNMCSFFVSDLHPMRWGY: 7.495 ± 0.035.
DISVLSLQYMS displayed an amyloid nucleation score of -0.105 ± 0.8.
The substance LFFCDPWPHLMWHLPRIVHL gave an amyloid nucleation score of -0.748 ± 0.42.
The same measure for LGSAYSGKPHVFCS: “inactive”; for PNSLYGYKIAFSLDFFVRVY: “inactive”.
The same measure for CEDSCSSCNGILLDVREERS: 1.89 ± 0.076; for FRVPF: 2.03 ± 0.24; for KINVSRFN: -0.146 ± 0.33.
Regarding FDYLVNIRHGCTWCRTTI, the amyloid nucleation score was -0.108 ± 0.4.
Regarding WLPMGRAGLCYYGEFDNSCW, the amyloid nucleation score result is “inactive”.
The same measure for CIQTSSREVSFRSIATDGST: 4.27 ± 0.047; for ANCCLRTWVFCRSYCYIILF: -0.014 ± 0.8.
Regarding FAYSLTPFRWSRDLLMSPLG, the amyloid nucleation score turned out to be 0.104 ± 0.28.
RNFRSCP: the amyloid nucleation score is 0.797 ± 0.44.
The same measure for ANSPVGHEPGFECKSGFRET: 0.168 ± 0.57; for CYTNYIYVLAAMWTSEIRKV: “inactive”.
The same measure for YVLSRDRSWIHGGVGELGAW: 0.969 ± 0.53; for LDNWEL: 0.145 ± 0.16; for HFFSSSSMRMYTSYSPLVMW: 0.215 ± 0.42.
As to SVFRND, the amyloid nucleation score is -0.28 ± 0.3.
For RTYLGLVLGF, the amyloid nucleation score entry is “inactive”.
The same measure for VLRSVRIFLDN: 1.3 ± 0.15; for RPLLKRKESM: 0.573 ± 0.28.
The same measure for LRLDLRMPQRYRLGDTFVSS: 0.243 ± 0.24.
Substance TEMWFDGRNSRMIQAH returned an amyloid nucleation score of 0.081 ± 0.36.
LNLLDGWFL yielded an amyloid nucleation score of -0.7 ± 0.48.
Take RWLTGMLDVVPYTFCEEV: the amyloid nucleation score result was “inactive”.
The same measure for ELPMLGFVCNYSKHQLFIFY: 5.04 ± 0.1.
The same measure for LAGIRCVIDRLMLCRVDAIK: -0.656 ± 0.28; for YIRIYRVTMRFNCINVAPWG: 6.928 ± 0.048.
The substance SIVLSDGLGS gave an amyloid nucleation score of 0.044 ± 1.1.
The same measure for EKMLF: 0.528 ± 0.34; for CKLMMGVFVLTVNTCGDVSS: 5.33 ± 0.054.
The same measure for FMIFDVGNSGKYLLSVS: -0.774 ± 0.27; for LFIRINWDFSNLWGTFGITV: 0.553 ± 0.2; for LNMRT: -0.443 ± 0.64.
In turn, GLSELMKGLLTN came in with an amyloid nucleation score of 0.08 ± 0.79.
The same measure for NYTWSNTRLNYPLRVNATNH: -1.01 ± 1.1.
The same measure for FIKMSNSWAYDAEFSVPLHM: 3.84 ± 0.047; for TMFGPH: 0.775 ± 0.74.
The same measure for LDAERM: 0.306 ± 0.23.
The substance LIPHSTSHRGFKLYSRVFYP had an amyloid nucleation score of -0.047 ± 1.1.
The same measure for YVCCR: 0.565 ± 0.46; for TRAHSED: 0.49 ± 0.32.
The same measure for DNDCHCSWENISYLWGHLRG: “inactive”; for YVLELKG: 2.75 ± 0.062.
YLCPTSGKLCGSSGKTMVTV came in with an amyloid nucleation score of -1.18 ± 0.48.
In turn, GGQLGGPWPANSLYNVTAVT registered an amyloid nucleation score of -0.075 ± 0.31.
Regarding LRDLLLVRTSSCDSYMWLSP, the amyloid nucleation score is -0.254 ± 1.
DTPGHGNACSKIRP registered an amyloid nucleation score of -0.159 ± 0.55.
Substance LTSHLYIYGMW came in with an amyloid nucleation score of -0.766 ± 0.48.
On to CRYEIKLCYDLMQNPLFTRS, for which the amyloid nucleation score is -0.522 ± 0.41.
The same measure for LVHFVVSALKT: “inactive”; for LVVVMWR: 2.82 ± 0.19; for EIFIPCEWGIVIHQGHAVSQ: 4.46 ± 0.076.
The same measure for YPTASVTATSHTFILSSNKN: 3.48 ± 0.063; for ISQRSNASCVN: 0.966 ± 0.48.
ICVECSYVYMTGGKV: the amyloid nucleation score was found to be 3.79 ± 0.057.
The same measure for TYYKRN: -0.4 ± 0.34; for GVGYPVFYWKVSMYSRDSDH: 3.38 ± 0.067; for SRMAWYFLLGYHLMMEKVHL: “inactive”.
LMAHTSFVDFGVKN gave an amyloid nucleation score of -0.266 ± 0.23.
For ACLFWIYARRHRLAWVVFIW, the amyloid nucleation score is -0.487 ± 1.1.
The same measure for IVDSVR: 0.388 ± 0.32.
For YYLNSTSGKDR, the amyloid nucleation score result is “inactive”.
The same measure for PQSWIVHRTIVHGSLGSCFP: -0.4 ± 0.3.
The substance PLLVLVNFLSGKSPQAHCSH displayed an amyloid nucleation score of 3.07 ± 0.077.
RINGRRWGFTWVASGLEYFG: the amyloid nucleation score stood at 1.87 ± 0.11.
Substance ESHCYSGDTWLCLCLSLVTR had an amyloid nucleation score of 8.457 ± 0.034.
